{"source": "patent US20160115200A1", "about": "(published 2016)", "binders": {"B1": {"name": "SEQ ID NO: 180 (peptide)", "chain": "[dR]KKR[dR]QRR[dR]RPTDL[dR]L[dW]"}, "B2": {"name": "SEQ ID NO: 186 (peptide)", "chain": "[dR]KKR[dR]QRR[dR]RP[dK]RP[dQ]TLNL[dF]"}, "B3": {"name": "SEQ ID NO: 174 (peptide)", "chain": "[dR]KKR[dR]QRR[dR]RPTTLNL[dF]"}, "B4": {"name": "SEQ ID NO: 177 (peptide)", "chain": "[dR]KKR[dR]QRR[dR]RP[dK]RPTDLNL[dF]"}, "B5": {"name": "SEQ ID NO: 176 (peptide)", "chain": "[dR]KKR[dR]QRR[dR]RP[dK]RPTTLNL[dW]"}, "B6": {"name": "SEQ ID NO: 182 (peptide)", "chain": "[dR]KKR[dR]QRR[dR]RP[dA]TLNL[dF]"}, "B7": {"name": "SEQ ID NO: 46 (peptide)", "chain": "RKKRRQRRR"}, "B8": {"name": "SEQ ID NO: 179 (peptide)", "chain": "[dR]KKR[dR]QR[dR]RPTTL[dR]L[dW]"}, "B9": {"name": "SEQ ID NO: 172 (peptide)", "chain": "RKKRRQRRRRPKRPATLNLF"}, "B10": {"name": "SEQ ID NO: 194 (peptide)", "chain": "GRKKRRQRRRPPKRPTTLNLFPQVPRSQD"}, "B11": {"name": "SEQ ID NO: 188 (peptide)", "chain": "[dR]KKR[dR]QRR[dR]GKRKALKL[dF]"}, "B12": {"name": "SEQ ID NO: 183 (peptide)", "chain": "[dR]KKR[dR]QR[dR]RP[dA]TLNL[dF]"}, "B13": {"name": "SEQ ID NO: 187 (peptide)", "chain": "[dR]KKR[dR]QRR[dR]RP[dK]RP[dK]TLNL[dF]"}, "B14": {"name": "SEQ ID NO: 6 (peptide)", "chain": "RPKRPTTL[dR]LF"}, "B15": {"name": "SEQ ID NO: 181 (peptide)", "chain": "[dR]KKR[dR]QR[dR]RPTDL[dR]L[dW]"}, "B16": {"name": "SEQ ID NO: 190 (peptide)", "chain": "[dR]KKR[dR]QRR[dR]RKAL[dR]L[dF]"}, "B17": {"name": "SEQ ID NO: 200 (peptide)", "chain": "[dR]KKR[dR]QRR[dR]RP[dK]AA[dA]AANA[dF]"}, "B18": {"name": "SEQ ID NO: 184 (peptide)", "chain": "[dR]KKR[dR]QR[dR]KRP[dA]TLNL[dF]"}, "B19": {"name": "SEQ ID NO: 178 (peptide)", "chain": "[dR]KKR[dR]QRR[dR]RPTTL[dR]L[dW]"}, "B20": {"name": "SEQ ID NO: 195 (peptide)", "chain": "GRKKRRQRRRPTTLNLFPQVPRSQD"}, "B21": {"name": "SEQ ID NO: 185 (peptide)", "chain": "[dR]KKR[dR]QRR[dR]RP[dK]RP[dS]TLNL[dF]"}, "B22": {"name": "SEQ ID NO: 175 (peptide)", "chain": "[dR]KKR[dR]QR[dR]RPTTLNL[dF]"}, "B23": {"name": "SEQ ID NO: 173 (peptide)", "chain": "[dR]KKR[dR]QRR[dR]RP[dK]RPTTL[dR]L[dF]"}, "B24": {"name": "SEQ ID NO: 189 (peptide)", "chain": "[dR]KKR[dR]QRR[dR]GKRKAL[dR]L[dF]"}}, "key": {"[1]": {"target": "T1, His-JNK1 (ref 14-327, Upstate) (UniProt P45983 1-384)", "T1 sequence (P45983 other isoform, or with tags, fused parts or gaps)": "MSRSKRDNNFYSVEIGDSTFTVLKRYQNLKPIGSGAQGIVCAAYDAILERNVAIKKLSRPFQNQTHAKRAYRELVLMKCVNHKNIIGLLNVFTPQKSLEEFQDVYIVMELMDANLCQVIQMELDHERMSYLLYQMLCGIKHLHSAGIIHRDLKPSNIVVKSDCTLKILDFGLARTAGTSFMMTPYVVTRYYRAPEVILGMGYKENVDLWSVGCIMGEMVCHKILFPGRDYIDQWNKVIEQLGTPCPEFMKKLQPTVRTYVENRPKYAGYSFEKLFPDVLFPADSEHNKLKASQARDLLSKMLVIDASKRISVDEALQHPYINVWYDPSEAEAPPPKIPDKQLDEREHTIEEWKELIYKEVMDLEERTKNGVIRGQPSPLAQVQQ", "experiment": "kinase inhibition"}, "[2]": {"target": "T2, His-JNK3 (ref 14-501, Upstate) (UniProt P53779 1-422)", "T2 sequence (P53779 other isoform, or with tags, fused parts or gaps)": "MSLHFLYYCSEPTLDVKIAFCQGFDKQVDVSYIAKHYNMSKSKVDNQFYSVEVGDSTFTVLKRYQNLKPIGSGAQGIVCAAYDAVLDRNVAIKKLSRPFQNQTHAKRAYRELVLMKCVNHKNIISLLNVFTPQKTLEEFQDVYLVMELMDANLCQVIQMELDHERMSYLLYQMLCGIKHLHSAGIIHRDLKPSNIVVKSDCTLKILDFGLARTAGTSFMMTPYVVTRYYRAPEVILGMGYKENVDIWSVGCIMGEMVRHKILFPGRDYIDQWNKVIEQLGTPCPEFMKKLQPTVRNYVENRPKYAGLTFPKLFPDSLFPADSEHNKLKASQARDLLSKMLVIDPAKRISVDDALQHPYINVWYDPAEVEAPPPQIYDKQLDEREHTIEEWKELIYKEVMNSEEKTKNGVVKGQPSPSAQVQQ", "experiment": "kinase inhibition"}, "[3]": {"target": "T1, His-JNK1 (ref 14-327, Upstate)", "experiment": "JNK inhibition assay"}, "[4]": {"target": "T2, His-JNK3 (ref 14-501, Upstate)", "experiment": "JNK inhibition assay"}}, "note": "Square brackets hold non-standard residues; d marks the D form. Ends that are not written are not given here.", "data": [{"binder": "B1", "values": [{"measurement": "IC50", "setting": "[1]", "result": 265, "unit": "nM"}, {"measurement": "IC50", "setting": "[2]", "result": 47, "unit": "nM"}]}, {"binder": "B2", "values": [{"measurement": "IC50", "setting": "[1]", "result": 1020, "unit": "nM"}, {"measurement": "IC50", "setting": "[2]", "result": 44.2, "unit": "nM"}]}, {"binder": "B3", "values": [{"measurement": "IC50", "setting": "[1]", "result": 334, "unit": "nM"}, {"measurement": "IC50", "setting": "[2]", "result": 63.1, "unit": "nM"}]}, {"binder": "B4", "values": [{"measurement": "IC50", "setting": "[1]", "result": 355, "unit": "nM"}, {"measurement": "IC50", "setting": "[2]", "result": 45.4, "unit": "nM"}]}, {"binder": "B5", "values": [{"measurement": "IC50", "setting": "[1]", "result": 131, "unit": "nM"}, {"measurement": "IC50", "setting": "[2]", "result": 22.4, "unit": "nM"}]}, {"binder": "B6", "values": [{"measurement": "IC50", "setting": "[1]", "result": 1680, "unit": "nM"}, {"measurement": "IC50", "setting": "[2]", "result": 59.4, "unit": "nM"}]}, {"binder": "B7", "values": [{"measurement": "IC50", "setting": "[2]", "result": 8130, "unit": "nM"}]}, {"binder": "B8", "values": [{"measurement": "IC50", "setting": "[1]", "result": 249, "unit": "nM"}, {"measurement": "IC50", "setting": "[2]", "result": 45.7, "unit": "nM"}]}, {"binder": "B9", "values": [{"measurement": "IC50", "setting": "[1]", "result": 722, "unit": "nM"}, {"measurement": "IC50", "setting": "[2]", "result": 102, "unit": "nM"}]}, {"binder": "B10", "values": [{"measurement": "IC50", "setting": "[1]", "result": 14, "unit": "nM"}, {"measurement": "IC50", "setting": "[2]", "result": 2.59, "unit": "nM"}]}, {"binder": "B11", "values": [{"measurement": "IC50", "setting": "[1]", "result": 1420, "unit": "nM"}, {"measurement": "IC50", "setting": "[2]", "result": 36.1, "unit": "nM"}]}, {"binder": "B12", "values": [{"measurement": "IC50", "setting": "[1]", "result": 2590, "unit": "nM"}, {"measurement": "IC50", "setting": "[2]", "result": 199, "unit": "nM"}]}, {"binder": "B13", "values": [{"measurement": "IC50", "setting": "[1]", "result": 594, "unit": "nM"}, {"measurement": "IC50", "setting": "[2]", "result": 25.4, "unit": "nM"}]}, {"binder": "B14", "values": [{"measurement": "IC50", "setting": "[3]", "result": 90.5, "unit": "nM"}, {"measurement": "IC50", "setting": "[4]", "result": 120, "unit": "nM"}]}, {"binder": "B15", "values": [{"measurement": "IC50", "setting": "[1]", "result": 294, "unit": "nM"}, {"measurement": "IC50", "setting": "[2]", "result": 47.6, "unit": "nM"}]}, {"binder": "B16", "values": [{"measurement": "IC50", "setting": "[1]", "result": 8970, "unit": "nM"}, {"measurement": "IC50", "setting": "[2]", "result": 159, "unit": "nM"}]}, {"binder": "B17", "values": [{"measurement": "IC50", "setting": "[2]", "result": 3820, "unit": "nM"}]}, {"binder": "B18", "values": [{"measurement": "IC50", "setting": "[1]", "result": 2430, "unit": "nM"}, {"measurement": "IC50", "setting": "[2]", "result": 129, "unit": "nM"}]}, {"binder": "B19", "values": [{"measurement": "IC50", "setting": "[1]", "result": 329, "unit": "nM"}, {"measurement": "IC50", "setting": "[2]", "result": 30.4, "unit": "nM"}]}, {"binder": "B20", "values": [{"measurement": "IC50", "setting": "[1]", "result": 10.8, "unit": "nM"}, {"measurement": "IC50", "setting": "[2]", "result": 4.92, "unit": "nM"}]}, {"binder": "B21", "values": [{"measurement": "IC50", "setting": "[1]", "result": 766, "unit": "nM"}, {"measurement": "IC50", "setting": "[2]", "result": 35.5, "unit": "nM"}]}, {"binder": "B22", "values": [{"measurement": "IC50", "setting": "[1]", "result": 185, "unit": "nM"}, {"measurement": "IC50", "setting": "[2]", "result": 60.6, "unit": "nM"}]}, {"binder": "B23", "values": [{"measurement": "IC50", "setting": "[1]", "result": 88.4, "unit": "nM"}, {"measurement": "IC50", "setting": "[2]", "result": 16.8, "unit": "nM"}]}, {"binder": "B24", "values": [{"measurement": "IC50", "setting": "[1]", "result": 22300, "unit": "nM"}, {"measurement": "IC50", "setting": "[2]", "result": 128, "unit": "nM"}]}]}
